Source: patent publication US20100146651, “MEGANUCLEASE VARIANTS CLEAVING A DNA TARGET SEQUENCE FROM THE HPRT GENE AND USES THEREOF” (CELLECTIS, published 2010)
Substitutions are numbered along the chain they refer to.

Tests used:
Test in all cases: cell_activity; CHO chromosomal reporter, maximum
[1] = molecular target: T1, HprCH3.3/HprCH3.4 heterodimer (KNSHQS/QRRDI/42A43L + KNTHQS/RYSNN/72T) (synthetic, UniProt P05725;P05725 SEQ:1-163,SEQ:1-163)
T1 chain 1: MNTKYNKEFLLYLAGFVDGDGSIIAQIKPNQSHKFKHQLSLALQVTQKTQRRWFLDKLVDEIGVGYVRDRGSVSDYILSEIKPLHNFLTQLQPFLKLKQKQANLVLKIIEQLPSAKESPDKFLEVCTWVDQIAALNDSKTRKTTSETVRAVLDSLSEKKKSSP
T1 chain 2: T1 chain 1 with S32T, A42T, L43F, Q44R, R68Y, R70S, S72T, D75N, I77N
From the text: (§1) To evaluate the cleavage activity of the original and G19S derived mutants a chromosomal reporter system in CHO cells was used (FIG. 20). In this system a single-copy LacZ gene driven by the CMV promoter is interrupted by the HprCH3 site and is thus non-functional. The transfection of the cell line with CHO expression plasmids for HprCH3.3/HprCH3.4 and a LacZ repair plasmid allows the restoration of a functional LacZ gene by homologous recombination. It has previously been shown that double-strand breaks can induce homologous recombination; therefore the frequency with which the LacZ gene is repaired is indicative of the cleavage efficiency of the genomic HprCH3 target site.
(§2) CHO cell lines harbouring the reporter system were seeded at a density of 2×10⁵ cells per 10 cm dish in complete medium (Kaighn's modified F-12 medium (F12-K), supplemented with 2 mM L-glutamine, penicillin (100 UI/ml), streptomycin (100 μg/ml), amphotericin B (Fongizone) (0.25 μg/ml) (INVITROGEN-LIFE SCIENCE) and 10% FBS (SIGMA-ALDRICH CHIMIE). The next day, cells were transfected with Polyfect transfection reagent (QIAGEN). Briefly, 2 μg of lacz repair matrix vector was co-transfected with various amounts of meganucleases expression vectors. After 72 hours of incubation at 37° C., cells were fixed in 0.5% glutaraldehyde at 4° C. for 10 min, washed twice in 100 mM phosphate buffer with 0.02% NP40 and stained with the following staining buffer (10 mM Phosphate buffer, 1 mM MgCl₂, 33 mM K hexacyanoferrate (III), 33 mM K hexacyanoferrate (II), 0.1% (v/v) X-Gal). After, an overnight incubation at 37° C., plates were examined under a light microscope and the number of LacZ positive cell clones counted. The frequency of LacZ repair is expressed as the number of LacZ+ foci divided by the number of transfected cells (5×10⁵) and corrected by the transfection efficiency.

[2] = molecular target: T2, HprCH3.3 G19S/HprCH3.4 heterodimer (synthetic, UniProt P05725;P05725 SEQ:1-163,SEQ:1-163, G19S in first chain)
T2 sequence 1: T1 chain 1 with G19S
T2 sequence 2: T1 chain 1 with S32T, A42T, L43F, Q44R, R68Y, R70S, S72T, D75N, I77N
From the text: as §1, §2

[3] = molecular target: T3, HprCH3.3/HprCH3.4 G19S heterodimer (synthetic, UniProt P05725;P05725 SEQ:1-163,SEQ:1-163, G19S in second chain)
T3 sequence 1: T1 chain 1
T3 sequence 2: T1 chain 1 with G19S, S32T, A42T, L43F, Q44R, R68Y, R70S, S72T, D75N, I77N
From the text: as §1, §2

B1: HprCH3 (dsDNA)
DNA 1: CGAGATGTCATGAAAGAGATGG
DNA 2: CCATCTCTTTCATGACATCTCG
activity [1]: 0.002 LacZ repair frequency | activity [2]: 0.0115 LacZ repair frequency | activity [3]: 0.012 LacZ repair frequency
